# Source: US20170275344A1, “POLYPEPTIDES AND USES THEREOF AS A DRUG FOR TREATMENT OF AUTOIMMUNE DISORDERS” (Compugen Ltd., priority 2014, published 2017)
# Tests used:
# Assay type in all cases: in vivo, mouse
# SJL/J mice [1] = assay: BBB breakdown and inflammation by fluorescence molecular tomography in adoptive transfer R-EAE; conditions: Day +30, treatment from onset of remission
# Experimental: […] At the time of imaging mice were anesthetized by administration of sodium pentobarbital (50 mg/kg) and then imaged using the FMT 2500 fluorescence molecular tomography in vivo imaging system. The data is presented as pmol of CathepsinB or AngioSense present within the brain (B) or spinal cord (C).
# Commercially available near infrared (NIR) imaging agents were used to perform tomographic imaging (PerkinElmer Inc., Boston, Mass.). […] For the in vivo imaging, mice were injected intravenously with 4 nmol of NIR fluorescent agent 24 hrs prior to imaging, and imaged following the last treatment with Control Ig or C1ORF32 ECD-Fc (SEQ ID NO: 42) (Day +30 post-PLP139-151 blast cell transfer). At the time of imaging, mice were anesthetized by administration of sodium pentobarbital (50 mg/kg) and then imaged using the FMT 2500 fluorescence molecular tomography in vivo imaging system (PerkinElmer Inc., Boston, Mass.). […] Appropriate optical filters allowed the collection of both fluorescence and excitation datasets, and the multiple source-detector fluorescence projections were normalized to the paired collection of laser excitation data. […] The total amount of fluorescence (in pmoles) in different organ sites was automatically calculated relative to internal standards generated with known concentrations of appropriate FR/NIR dyes. […]
# SJL/J mice [2] = assay: PLP139-151/CFA R-EAE upon IL-10 or TGFb blockade, clinical score
# Experimental: SJL/J mice were purchased from Harlan and primed with PLP139-151/CFA per the standard protocol, as described in 21.1.2 Methods, above). At disease remission the mice were split into 6 different treatment groups (n=5) as follows:
# Mice were treated with Control Ig (mouse IgG2a) or C1ORF32 ECD-Fc (SEQ ID NO:42) at 100 ug/dose, each via an i.p. injection. This was followed with a second i.p. injection on the same day of either anti-IL-10 (rat IgG1), rat IgG1 (control Ab), or anti-TGFβ (mouse IgG1) at 100 ug/dose, each. All treatments were given 3×/wk for 2 wks, beginning on day +20 (onset of disease remission) and until day +31 post disease induction. All mice were followed for disease scores until day 44 post disease induction. On day 44, mice were sacrificed and analyzed for total T cell and Treg cell numbers in spleen and CNS.
# At onset of disease remission (day +20 post disease induction) mice were allocated into 6 treatment groups (described above) and treated with either C1ORF32 ECD-Fc (SEQ ID NO:42) or control Ig (mIgG2a), and followed on the same day by treatment with anti-IL-10, anti-TGF-β, or rat IgG1 isotype control. All treatments were given at 100 ug/dose in 100 μl of PBS; via i.p. injection, at 3×/week for 2 weeks from onset of remission.
# Mice were followed for disease and scored on a 0-5 scale per standard lab protocol as follows: 0, no abnormality; 1, limp tail; 2, limp tail and hind limb weakness; 3, hind limb paralysis; 4, hind limb paralysis and forelimb weakness; and 5, moribund. Dead mice were scored with a score of 5 on the day of death only, and were not further scored on the next days.
# Male DBA/1O1aHsd mice = assay: CIA model, early stage treatment from day 18
# Excerpt: The aim of this study was to estimate the effect of C1ORF32-P8-V1-ECD-mFc (SEQ ID NO:42) on disease development in a type II Collagen induced arthritis (CIA) mouse model upon administration at early stage of disease; i.e., when specific and predictive markers for RA development are present in the serum, but before onset of clinical symptoms.
# In the CIA model, arthritis is induced by immunization with type II collagen in CFA on day 1 which is followed by boosting with type II collagen in CFA on day 21. Antibodies against both CII and cyclic citrullinated peptide (CCPs) appear early after immunization, before joint swelling is observed.
# To evaluate the effect of early stage treatment with C1ORF32-P8-V1-ECD-mFc (SEQ ID NO:42) on disease development treatment started on day 18 and was given IP injection, Q2D to mice from day 18 until day 32.
# Male DBA/1O1aHsd mice weighing 16-25 grams (mean 22 g) on day 18 of the study were obtained from Harlan, Inc., Indianapolis, Ind. Mice (10/group) were anaesthetized with Isoflurane, shaved at the base of the tail, and injected intradermally with 150 μl of Freund's Complete Adjuvant (Sigma) containing bovine type II collagen (Elastin Products, Owensville, Mo.) (2 mg/me at the base of the tail on day 0 and again on day 21. On study day 18, mice were randomized by body weight into treatment groups. Treatment was initiated after enrollment and continued every other day (Q2D at 48 h intervals) through study day 33. On study days 23-34, onset of arthritis occurred. Mice were terminated on study day 34. Clinical scores were given for each of the paws (right front, left front, right rear, left rear) on arthritis days 18-34.
# Mice were weighed on study days 18, 20, 22, 24, 26, 28, 30, 32 and 34 (prior to necropsy). […]
molecule,measurement,setting,value
"C1ORF32 ECD-Fc (SEQ ID NO:42): fusion protein of human C1ORF32 ECD fused to mouse immunoglobulin Fc (human-mouse fusion protein) (protein, Fusion protein human C1ORF32-ECD fused to mouse IgG2a Fc) LQVTVPDKKKVAMLFQPTVLRCHFSTSSHQPAVVQWKFKSYCQDRMGESLGMSSTRAQSLSKRNLEWDPYLDCLDSRRTVRVVASKQGSTVTLGDFYRGREITIVHDADLQIGKLMWGDSGLYYCIITTPDDLEGKNEDSVELLVLGRTGLLADLLPSFAVEIMGSENLYFQGSGEPRGPTIKPCPPCKCPAPNLLGGPSVFIFPPKIKDVLMISLSPIVTCVVVDVSEDDPDVQISWFVNNVEVHTAQTQTHREDYNSTLRVVSALPIQHQDWMSGKEFKCKVNNKDLPAPIERTISKPKGSVRAPQVYVLPPPEEEMTKKQVTLTCMVTDFMPEDIYVEWTNNGKTELNYKNTEPVLDSDGSYFMYSKLRVEKKNWVERNSYSCSVVHEGLHNHHTTKSFSRTPGK",monocyte/macrophage activity in the brain and spinal cord (lysosomal CathepsinB activity),SJL/J mice [1],reduced lysosomal CathepsinB activity; however this effect did not reach statistical significance
same,vascular leakage in the brain and spinal cord (AngioSense720 levels),SJL/J mice [1]; significant,decreased vascular leakage
same,disease progression,"SJL/J mice [2]; 100 ug/dose i.p. 3x/wk 2 wks from day +20, followed by rIgG1, vs control Abs only",pronounced inhibition of disease progression
same,beneficial effect on disease with concomitant anti-IL-10,SJL/J mice [2]; followed by anti-IL-10 100 ug/dose,abrogated the beneficial effect
same,beneficial effect on disease with concomitant anti-TGFβ,SJL/J mice [2]; followed by anti-TGFβ 100 ug/dose,abrogated the beneficial effect
same,mice found dead,"SJL/J mice [2]; group C1ORF32 ECD-Fc and anti-TGFβ, day 28, n=5",1
same,mice found dead,"SJL/J mice [2]; group C1ORF32 ECD-Fc in combination with anti-IL-10, day 28, n=5",2
same,effect of the lower dose,Male DBA/1O1aHsd mice; 3.3 mg/kg IP Q2D,No effect
same,clinical arthritis score,"Male DBA/1O1aHsd mice; 10 mg/kg IP Q2D from day 18, vs PBS or mIgG2a, did not reach significance",inhibition of clinical arthritis score
same,body weight loss (percent change from baseline),"Male DBA/1O1aHsd mice; 10 mg/kg, from study day 30 until termination, data not shown",significantly inhibited toward normal
